Article PMC6368630
Blank lines part the entries; values can stand above or below the substance they belong to.

Tests used:
Assay in all cases: BRET (mG protein recruitment) in HEK293 cells
Venus-tagged mG13 = details: n = 6, mean ± s.e.m., read off a plot
Venus-tagged mGs = details: highest WNT-5A concentration shown (about log 2.5-3 ng/ml); n = 8; mean ± s.e.m.; parent: est. 100.1; read off a plot
Venus-tagged mGsi = details: mean ± s.e.m., read off a plot
Venus-tagged mGsq = details: highest WNT-5A concentration shown (about log 3 ng/ml); n = 5; mean ± s.e.m.; parent: est. 101; read off a plot

Substance: hFZD4-Nluc (from UniProt Q9ULV1) K436A
response (Venus-tagged mG13; highest WNT-5A concentration shown (about log 3-3.5 ng/ml), parent: est. 105.5): 106 % of vehicle | response (Venus-tagged mG13; second-highest WNT-5A concentration shown (about log 2.5 ng/ml), parent: est. 100.0): 103 % of vehicle

Substance: mouse SMO-Rluc8 (from UniProt P56726) R455A
response (Venus-tagged mGsi; SAG alone, at the peak of the bell-shaped curve (about log -9.5 M), n = 6, parent: est. 100.9): 102 % of vehicle

Substance: SNAP-FZD5-Rluc8 (from UniProt Q13467) R449A
response (Venus-tagged mGsq): 103 % of vehicle

Continued, values first:

response (Venus-tagged mGs): 102 % of vehicle
Substance: SNAP-FZD7-Rluc8 (from UniProt O75084) R470A

response (Venus-tagged mGsi; highest WNT-5A concentration shown (about log 3.5 ng/ml), wild type n = 7, R416A n = 6, parent: est. 104): 109 % of vehicle
Substance: SNAP-FZD6-Rluc8 (from UniProt O60353) R416A
